IC50 data for 1 molecule are collected here from publication PMC2194124 (The Journal of Experimental Medicine, 2003).

This experiment deals with Isolated Mac-1 (αMβ2, CD11b/CD18) (UniProt P11215 17-1152; P05107 23-769). The experiment can be described thus: ELISA. For orientation: An ELISA detects its analyte on a solid surface through an enzyme-linked reagent.

B1: Recombinant soluble mouse RAGE (receptor)
chain: GQNITARIGEPLVLSCKGAPKKPPQQLEWKLNTGRTEAWKVLSPQGGPWDSVARILPNGSLLLPATGIVDEGTFRCRATNRRGKEVKSNYRVRVYQIPGKPEIVDPASELTASVPNKVGTCVSEGSYPAGTLSWHLDGKLLIPDGKETLVKEETRRHPETGLFTLRSELTVIPTQGGTHPTFSCSFSLGLPRRRPLNTAPIQLRVREPGPPEGIQLLVEPEGGIVAPGGTVTLTCAISAQPPPQVHWIKDGAPLPLAPSPVLLLPEVGHEDEGTYSCVATHPSHGPQESPPVSIRVTETGDEGPAEGSVGESGLGTLA
The IC50 is the concentration at which inhibition is half-maximal. High values mean a need for much substance, low ones inhibition by little substance. Consider B1, for which the IC50 was ~175 nM.
